In article PMC7367873, “Dissecting the sequence determinants for dephosphorylation by the catalytic subunits of phosphatases PP1 and PP2A” (Nature Communications, 2020):

Assays:
[1] = test system: GFP-14-3-3β; assay: GFP-14-3-3β co-IP with LC-MS/MS, untreated GFP-14-3-3β versus GFP control (14-3-3 interactome); type: binding, human; settings: 3 replicates each
[2] = test system: GFP-14-3-3β and its binding proteins; assay: GFP-14-3-3β co-IP with LC-MS/MS label-free quantification, untreated versus PP1c-treated; design: species or system human; settings: pairwise comparison PP1 vs untreated, 3 replicates each
[3] = pairwise comparison untreated GFP-14-3-3β vs GFP, student's t-test, LC-MS/MS label-free quantification
[4] = student's t-test, LC-MS/MS label-free quantification

Molecule	Difference (log2), PP1 vs untreated [2, 4] [log2]	Difference (log2), PP1 vs untreated ([2]; log2 difference, label-free quantification)	Difference (log2), untreated vs GFP [1, 3] [log2]	Difference (log2), untreated vs GFP ([1]; log2 difference, pairwise comparison untreated vs GFP, label-free quantification)
EIF4E2 (protein, UniProt O60573 1-245, looked up) Eukaryotic translation …: MNNKFDALKDDDSGDHDQNEENSTQKDGEKEKTERDKNQSSSKRKAVVPGPAEHPLQYNYTFWYSRRTPGRPTSSQSYEQNIKQIGTFASVEQFWRFYSHMVRPGDLTGHSDFHLFKEGIKPMWEDDANKNGGKWIIRLRKGLASRCWENLILAMLGEQFMVGEEICGAVVSVRFQEDIISIWNKTASDQATTARIRDTLRRVLNLPPNTIMEYKTHTDSIKMPGRLGPQRLLFQNLWKPRLNVP	-4.306	–	3.4457	–
GIT1 (protein, UniProt Q9Y2X7 1-761, looked up) ARF GTPase-activating protein …: MSRKGPRAEVCADCSAPDPGWASISRGVLVCDECCSVHRSLGRHISIVKHLRHSAWPPTLLQMVHTLASNGANSIWEHSLLDPAQVQSGRRKANPQDKVHPIKSEFIRAKYQMLAFVHKLPCRDDDGVTAKDLSKQLHSSVRTGNLETCLRLLSLGAQANFFHPEKGTTPLHVAAKAGQTLQAELLVVYGADPGSPDVNGRTPIDYARQAGHHELAERLVECQYELTDRLAFYLCGRKPDHKNGHYIIPQMADSLDLSELAKAAKKKLQALSNRLFEELAMDVYDEVDRRENDAVWLATQNHSTLVTERSAVPFLPVNPEYSATRNQGRQKLARFNAREFATLIIDILSEAKRRQQGKSLSSPTDNLELSLRSQSDLDDQHDYDSVASDEDTDQEPLRSTGATRSNRARSMDSSDLSDGAVTLQEYLELKKALATSEAKVQQLMKVNSSLSDELRRLQREIHKLQAENLQLRQPPGPVPTPPLPSERAEHTPMAPGGSTHRRDRQAFSMYEPGSALKPFGGPPGDELTTRLQPFHSTELEDDAIYSVHVPAGLYRIRKGVSASAVPFTPSSPLLSCSQEGSRHTSKLSRHGSGADSDYENTQSGDPLLGLEGKRFLELGKEEDFHPELESLDGDLDPGLPSTEDVILKTEQVTKNIQELLRAAQEFKHDSFVPCSEKIHLAVTEMASLFPKRPALEPVRSSLRLLNASAYRLQSECRKTVPPEPGAPVDFQLLTQQVIQCAYDIAKAAKQLVTITTREKKQ	-4.417	–	5.06	–
HOMER3 (protein, UniProt Q9NSC5 1-361, looked up) Homer protein homolog 3: MSTAREQPIFSTRAHVFQIDPATKRNWIPAGKHALTVSYFYDATRNVYRIISIGGAKAIINSTVTPNMTFTKTSQKFGQWADSRANTVYGLGFASEQHLTQFAEKFQEVKEAARLAREKSQDGGELTSPALGLASHQVPPSPLVSANGPGEEKLFRSQSADAPGPTERERLKKMLSEGSVGEVQWEAEFFALQDSNNKLAGALREANAAAAQWRQQLEAQRAEAERLRQRVAELEAQAASEVTPTGEKEGLGQGQSLEQLEALVQTKDQEIQTLKSQTGGPREALEAAEREETQQKVQDLETRNAELEHQLRAMERSLEEARAERERARAEVGRAAQLLDVSLFELSELREGLARLAEAAP	-4.512	–	5.445	–
KIF23 (protein, UniProt Q02241 1-960, looked up) Kinesin-like protein KIF23: MKSARAKTPRKPTVKKGSQTNLKDPVGVYCRVRPLGFPDQECCIEVINNTTVQLHTPEGYRLNRNGDYKETQYSFKQVFGTHTTQKELFDVVANPLVNDLIHGKNGLLFTYGVTGSGKTHTMTGSPGEGGLLPRCLDMIFNSIGSFQAKRYVFKSNDRNSMDIQCEVDALLERQKREAMPNPKTSSSKRQVDPEFADMITVQEFCKAEEVDEDSVYGVFVSYIEIYNNYIYDLLEEVPFDPIKPKPPQSKLLREDKNHNMYVAGCTEVEVKSTEEAFEVFWRGQKKRRIANTHLNRESSRSHSVFNIKLVQAPLDADGDNVLQEKEQITISQLSLVDLAGSERTNRTRAEGNRLREAGNINQSLMTLRTCMDVLRENQMYGTNKMVPYRDSKLTHLFKNYFDGEGKVRMIVCVNPKAEDYEENLQVMRFAEVTQEVEVARPVDKAICGLTPGRRYRNQPRGPVGNEPLVTDVVLQSFPPLPSCEILDINDEQTLPRLIEALEKRHNLRQMMIDEFNKQSNAFKALLQEFDNAVLSKENHMQGKLNEKEKMISGQKLEIERLEKKNKTLEYKIEILEKTTTIYEEDKRNLQQELETQNQKLQRQFSDKRRLEARLQGMVTETTMKWEKECERRVAAKQLEMQNKLWVKDEKLKQLKAIVTEPKTEKPERPSRERDREKVTQRSVSPSPVPLSSNYIAQISNGQQLMSQPQLHRRSNSCSSISVASCISEWEQKIPTYNTPLKVTSIARRRQQEPGQSKTCIVSDRRRGMYWTEGREVVPTFRNEIEIEEDHCGRLLFQPDQNAPPIRLRHRRSRSAGDRWVDHKPASNMQTETVMQPHVPHAITVSVANEKALAKCEKYMLTHQELASDGEIETKLIKGDIYKTRGGGQSVQFTDIETLKQESPNGSRKRRSSTVAPAQPDGAESEWTDVETRCSVAVEMRAGSQLGPGYQHHAQPKRKKP	-4.537	–	6.386	–

Continued, in another order:

Difference (log2), PP1 vs untreated [2, 4] [log2]	Difference (log2), PP1 vs untreated ([2]; log2 difference, label-free quantification)	Molecule	Difference (log2), untreated vs GFP [1, 3] [log2]	Difference (log2), untreated vs GFP ([1]; log2 difference, pairwise comparison untreated vs GFP, label-free quantification)
-4.365	–	PAK4 (protein, UniProt O96013 1-591, looked up) Serine/threonine-protein …: MFGKRKKRVEISAPSNFEHRVHTGFDQHEQKFTGLPRQWQSLIEESARRPKPLVDPACITSIQPGAPKTIVRGSKGAKDGALTLLLDEFENMSVTRSNSLRRDSPPPPARARQENGMPEEPATTARGGPGKAGSRGRFAGHSEAGGGSGDRRRAGPEKRPKSSREGSGGPQESSRDKRPLSGPDVGTPQPAGLASGAKLAAGRPFNTYPRADTDHPSRGAQGEPHDVAPNGPSAGGLAIPQSSSSSSRPPTRARGAPSPGVLGPHASEPQLAPPACTPAAPAVPGPPGPRSPQREPQRVSHEQFRAALQLVVDPGDPRSYLDNFIKIGEGSTGIVCIATVRSSGKLVAVKKMDLRKQQRRELLFNEVVIMRDYQHENVVEMYNSYLVGDELWVVMEFLEGGALTDIVTHTRMNEEQIAAVCLAVLQALSVLHAQGVIHRDIKSDSILLTHDGRVKLSDFGFCAQVSKEVPRRKSLVGTPYWMAPELISRLPYGPEVDIWSLGIMVIEMVDGEPPYFNEPPLKAMKMIRDNLPPRLKNLHKVSPSLKGFLDRLLVRDPAQRATAAELLKHPFLAKAGPPASIVPLMRQNRTR	5.767	–
–	1.519	PA2G4 (protein, UniProt Q9UQ80 2-394, looked up) Proliferation-associated …: SGEDEQQEQTIAEDLVVTKYKMGGDIANRVLRSLVEASSSGVSVLSLCEKGDAMIMEETGKIFKKEKEMKKGIAFPTSISVNNCVCHFSPLKSDQDYILKEGDLVKIDLGVHVDGFIANVAHTFVVDVAQGTQVTGRKADVIKAAHLCAEAALRLVKPGNQNTQVTEAWNKVAHSFNCTPIEGMLSHQLKQHVIDGEKTIIQNPTDQQKKDHEKAEFEVHEVYAVDVLVSSGEGKAKDAGQRTTIYKRDPSKQYGLKMKTSRAFFSEVERRFDAMPFTLRAFEDEKKARMGVVECAKHELLQPFNVLYEKEGEFVAQFKFTVLLMPNGPMRITSGPFEPDLYKSEMEVQDAELKALLQSSASRKTQKKKKKKASKTAENATSGETLEENEAGD	–	0.3875
-4.593	–	MTMR3 (protein, UniProt Q13615 1-1198, looked up) Phosphatidylinositol-3,5-bisph …: MDEETRHSLECIQANQIFPRKQLIREDENLQVPFLELHGESTEFVGRAEDAIIALSNYRLHIKFKESLVNVPLQLIESVECRDIFQLHLTCKDCKVIRCQFSTFEQCQEWLKRLNNAIRPPAKIEDLFSFAYHAWCMEVYASEKEQHGDLCRPGEHVTSRFKNEVERMGFDMNNAWRISNINEKYKLCGSYPQELIVPAWITDKELESVSSFRSWKRIPAVIYRHQSNGAVIARCGQPEVSWWGWRNADDEHLVQSVAKACASDSRSSGSKLSTRNTSRDFPNGGDLSDVEFDSSLSNASGAESLAIQPQKLLILDARSYAAAVANRAKGGGCECPEYYPNCEVVFMGMANIHSIRRSFQSLRLLCTQMPDPGNWLSALESTKWLHHLSVLLKSALLVVHAVDQDQRPVLVHCSDGWDRTPQIVALAKLLLDPYYRTIEGFQVLVEMEWLDFGHKFADRCGHGENSDDLNERCPVFLQWLDCVHQLQRQFPCSFEFNEAFLVKLVQHTYSCLFGTFLCNNAKERGEKHTQERTCSVWSLLRAGNKAFKNLLYSSQSEAVLYPVCHVRNLMLWSAVYLPCPSPTTPVDDSCAPYPAPGTSPDDPPLSRLPKTRSYDNLTTACDNTVPLASRRCSDPSLNEKWQEHRRSLELSSLAGPGEDPLSADSLGKPTRVPGGAELSVAAGVAEGQMENILQEATKEESGVEEPAHRAGIEIQEGKEDPLLEKESRRKTPEASAIGLHQDPELGDAALRSHLDMSWPLFSQGISEQQSGLSVLLSSLQVPPRGEDSLEVPVEQFRIEEIAEGREEAVLPIPVDAKVGYGTSQSCSLLPSQVPFETRGPNVDSSTDMLVEDKVKSVSGPQGHHRSCLVNSGKDRLPQTMEPSPSETSLVERPQVGSVVHRTSLGSTLSLTRSPCALPLAECKEGLVCNGAPETENRASEQPPGLSTLQMYPTPNGHCANGEAGRSKDSLSRQLSAMSCSSAHLHSRNLHHKWLHSHSGRPSATSSPDQPSRSHLDDDGMSVYTDTIQQRLRQIESGHQQEVETLKKQVQELKSRLESQYLTSSLHFNGDFGDEVTSIPDSESNLDQNCLSRCSTEIFSEASWEQVDKQDTEMTRWLPDHLAAHCYACDSAFWLASRKHHCRNCGNVFCSSCCNQKVPVPSQQLFEPSRVCKSCYSSLHPTSSSIDLELDKPIAATSN	4.385	–
